Consider three substances from paper doi:10.1101/2023.08.10.552813.

Holding throughout (assay): SPR
Assay [1] deals with mouse Interleukin 33 (residues 112-270) (mouse).
Assay [2] has as its target HpARI_CCP2/3 (HpARI with CCP1 truncated) (Heligmosomoides polygyrus bakeri).
Assay [3] concerns the target Heligmosomoides polygyrus Alarmin Release Inhibitor (HpARI), full-length (Heligmosomoides polygyrus bakeri).
Assay [4] addresses HpARI-LD (full-length HpARI with residues 180-188 of the CCP3 loop deleted) (Heligmosomoides polygyrus bakeri).
For assay [5], the target named is HpARI_CCP1/2 (HpARI with CCP3 truncated) (Heligmosomoides polygyrus bakeri).

Sequence of HpARI_CCP2/3 (HpARI with CCP1 truncated) (Heligmosomoides polygyrus bakeri) (A0A3P7XL18 63-297): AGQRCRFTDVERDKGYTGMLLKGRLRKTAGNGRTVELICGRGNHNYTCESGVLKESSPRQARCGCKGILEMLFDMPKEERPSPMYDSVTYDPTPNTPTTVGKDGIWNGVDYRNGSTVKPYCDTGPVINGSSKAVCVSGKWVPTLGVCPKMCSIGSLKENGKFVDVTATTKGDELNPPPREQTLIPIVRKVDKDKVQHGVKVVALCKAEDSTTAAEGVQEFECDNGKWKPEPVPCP

Turning to “HpARI-LD (full-length HpARI with residues 180-188 of the CCP3 loop deleted) (natural protein)”, in assay [1], the percent reduction of mIL-33 binding against HpARI was 60% and the percent reduction of mIL-33 binding to ST2-Fc was 25%.
The substance mouse IL-33 R159A (ligand) registered a fold reduction in binding affinity against wild-type mIL-33 in assay [2] of 1000 fold.
“mouse Interleukin 33 (residues 112-270) (ligand)”: the Kd in assay [3] stood at 0.048 nM; in assay [4], 45 nM; in assay [5], 49 nM; in assay [2] it was 4 nM. Further, the koff, fold over that of full-length HpARI in assay [5] was more than 100 fold.

Usually Kd stands for the free concentration of one partner at which half of the binding sites on the other are occupied at equilibrium, for simple one-to-one binding. Higher therefore signals weaker binding.
